The target in experiment [1] is H3 HA antigen (A/Brisbane/10/2007) (influenza A virus (H3)). As to the kind of experiment: BLI (Octet RED), biotinylated HA on streptavidin sensor, 1:1 model.
The target in experiment [2] is recombinant H3 HA (A/Wisconsin/67/2005) (influenza A virus (H3N2)). The description is as above.
Experiment [3] concerns the target full-length recombinant H3 HA (A/Wisconsin/67/2005) on PER.C6 cells (influenza A virus (H3N2)). As to the kind of experiment: FACS, IgG 5 µg/ml, HA-expressing PER.C6 cells; untransfected MFI 4.
Experiment [4] deals with full-length recombinant H1 HA (A/New Caledonia/20/1999) on PER.C6 cells (influenza A virus (H1N1)). Described as above.
The target of experiment [5] is full-length recombinant H7 HA (A/Netherlands/219/2003) on PER.C6 cells (influenza A virus (H7N7)). The description is as above.

As to Fab fragment of CR8043, in experiment [1], the Kd (commonly the constant that tells how readily two partners part at equilibrium) came out at 0.3 nM; the koff (commonly the first-order rate constant of dissociation) was determined as 8.69e-05 s⁻¹; the kon – broadly, the second-order rate constant of association – came to 312000 M⁻¹ s⁻¹. Further, in experiment [2], the dissociation constant Kd came to 0.3 nM, the dissociation rate constant (koff) stood at 9.86e-05 s⁻¹ and the kon stood at 408000 M⁻¹ s⁻¹.
For CR8043 (antibody), the MFI was 646 MFI in experiment [3], 4 MFI in experiment [4] and 11 MFI in experiment [5].
In experiment [1], Fab fragment of CR8020 came in with a Kd of 8.9 nM, an off-rate constant (koff) of 0.00143 s⁻¹ and a kon of 181000 M⁻¹ s⁻¹. In experiment [2], the Kd is 11.2 nM, the koff was determined as 0.00208 s⁻¹ and the kon was found to be 203000 M⁻¹ s⁻¹.
With CR8020 (antibody), the MFI in experiment [3] was 657 MFI; in experiment [4], 3 MFI; in experiment [5], 140 MFI.

The values above are taken from patent publication US20130309248A1.
